According to article PMC3953403, “Drosophila SNAP-29 Is an Essential SNARE That Binds Multiple Proteins Involved in Membrane Traffic” (PLoS ONE, 2014):
Values belong to the molecule of their own block, whether it stands above or below them.

Molecular target: T1, GST-dSNAP-29 (Drosophila, UniProt Q9W1I8 1-284)
T1 construct: Drosophila SNAP-29 (CG11173, ubisnap/usnp), full-length cDNA amplified from EST clone LD17127 and subcloned into pGEX-KG; predicted mass 32 kDa; Vector pGEX-KG; also called GST-SNAP-29; Drosophila SNAP-29; source: coupled to glutathione beads
T1 sequence (looked up): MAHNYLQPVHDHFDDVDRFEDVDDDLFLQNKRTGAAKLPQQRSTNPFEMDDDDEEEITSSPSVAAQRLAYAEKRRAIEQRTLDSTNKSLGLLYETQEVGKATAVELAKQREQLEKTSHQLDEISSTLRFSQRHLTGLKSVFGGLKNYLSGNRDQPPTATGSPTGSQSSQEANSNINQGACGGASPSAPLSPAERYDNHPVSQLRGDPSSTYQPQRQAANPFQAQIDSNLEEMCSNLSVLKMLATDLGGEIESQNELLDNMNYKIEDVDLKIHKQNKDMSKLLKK
Assay: pull-down; 0.5 mg GST fusion or GST on 120 uL glutathione beads, incubated with pre-cleared S2 cell lysate (PLC or NP40 lysis buffer, 0.1% gelatin, 0.1% BSA); washes 50 mM HEPES pH 7.5, 150 mM NaCl, 2 mM EDTA; western blot
Conditions: for percent recovered from the lysate: one partner purified

Molecule: DAP160, endogenous (natural protein)
percent pulled down from the lysate: 15%

Molecule: dEHD1, endogenous (natural protein)
percent pulled down from the lysate: 12%

B1: dSNAP (Drosophila soluble NSF attachment protein), endogenous (natural protein, Drosophila (endogenous in S2 cells), UniProt Q23983 1-292, looked up)
chain: MGDNEQKALQLMAEAEKKLTQQKGFLGSLFGGSNKVEDAIECYQRAGNMFKMSKNWTKAGECFCEAATLHARAGSRHDAGTCYVDASNCYKKVDVESAVNCLMKSIDIYTDMGRFTMAAKHHQSIAEMYESDPNNLAKSIQHYEQAADYFKGEESVSSANKCMLKVAQYAAQLEDYEKAISIYEQVAASSLESSLLKYSAKEYFFRAALCHLSVDLLNAQHAIEKYAQQYPAFQDSREFKLIKVLCENLEEQNIEGFTEAVKDYDSISRLDQWYTTILLRIKKAADEDPDLR
notes: Drosophila SNAP (soluble NSF attachment protein), endogenous in Schneider S2 cells; also called Drosophila SNAP; source: endogenous, S2 cell lysate
percent recovered from the lysate: ~7%

Second part, the molecule after the results:

percent recovered from the lysate: 4%
B2: dsyntaxin 16, endogenous (natural protein, UniProt Q9VR90 1-352, looked up)
chain: MTSRNLTEVFVIMRNNASKNRNHYDDRRGSDAERLLKHSVREAEEGLELQDDYGTPPAWLDKFEEAQYTMSKIKPKLDELGSLHARHLLRPAFDDQRDDECDIEVLSQIVSKLITSTHRHIQCVRSSIGVGSKMEQCLTVNAVHCALLQLQELTVKFRASQNAYLLQLNSREERSQKYFDDGGGAGAGDVFTNVELGEQSAENFVDSFDNFLQPPAEGKSGNGYLFEDDEQAIDDHFQRPPASRMTQQQLLLFEEENTRVAQHREQEVTKIVKSIYDLNDIFKDLGHMVQEQGTVLDRIDYNVEQTQTRVSEGLRQLHKAEMYQRKNRKMCVILVLAAVTFFMLLLLILTKL
notes: Drosophila syntaxin 16, endogenous in S2 cells (pull-down) and in embryos (co-IP); also called dSyx16; dSyx 16; source: endogenous, S2 cell lysate; endogenous, Oregon R embryo lysate

percent recovered from the lysate: 6%
B3: dsyntaxin1, endogenous (natural protein, UniProt Q24547 1-291, looked up)
chain: MTKDRLAALHAAQSDDEEETEVAVNVDGHDSYMDDFFAQVEEIRGMIDKVQDNVEEVKKKHSAILSAPQTDEKTKQELEDLMADIKKNANRVRGKLKGIEQNIEQEEQQNKSSADLRIRKTQHSTLSRKFVEVMTEYNRTQTDYRERCKGRIQRQLEITGRPTNDDELEKMLEEGNSSVFTQGIIMETQQAKQTLADIEARHQDIMKLETSIKELHDMFMDMAMLVESQGEMIDRIEYHVEHAMDYVQTATQDTKKALKYQSKARRKKIMILICLTVLGILAASYVSSYFM
notes: Drosophila syntaxin 1, endogenous in S2 cells (pull-down) and in embryos (co-IP); also called dSyx1; source: endogenous, S2 cell lysate; endogenous, Oregon R embryo lysate
